Where two headings read alike, the source gives them in different places.
Molecular target: T1, murine extracellular domain of the Flt3 receptor fused to the transmembrane and intracellular domains of the human Fms (UniProt P07333+Q00342, A795S/A899S/C564L/C654D/C793H/C831G/D601N/D652H/D673E/D898N/DEL545-556/DEL576-597/DEL711-780/E609N/E612Q/E649S/E789R/E803A/E806A/E865D/F571P/F692T/F788L/F807S/G637D/G866C/H565Y/H671Q/H824N/I560L/I563L/I633L/I640L/I867V/I870V/INS558VACMSIMALLLL/INS573QVRWKII/INS599GNSYTFIDPTQLP/INS709AMLGPSLSPGQDPEGGVDYKNIHLEKKYVRRDSGFSSQGVDTYVEMRPVSTSSNDSFSEQDLD/K569Q/K650T/K800Q/K826H/K871Q/L602E/L684H/L690V/L783G/L815V/L840M/L863I/M626V/M665I/N627E/N784R/N900K/P896L/Q570K/Q641K/R572K/R624K/R708A/R848K/S619A/S634G/S639V/S653A/S685G/S706R/S809N/S841N/S844N/T636E/T667S/T787E/V561L/V616T/V638A/V785P/V811I/V822L/V828A/V846I/V889L/Y631F/Y689L/Y703F/Y796S)
T1 construct: consisting of the murine extracellular domain of the Flt3 receptor fused to the transmembrane and intracellular domains of the human Fms; expressed in transfected cells; host or cells: NIH 3T3 (mFlt3/Fms 3T3 cell line, provided by Dr. Ihor Lemischka)
T1 sequence (Q00342+P07333 with tags, fused parts or gaps Q00342:DEL545-556/Q00342:INS558VACMSIMALLLL/Q00342:I560L/Q00342:V561L/Q00342:I563L/Q00342:C564L/Q00342:H565Y/Q00342:K569Q/Q00342:Q570K/Q00342:F571P/Q00342:R572K/Q00342:INS573QVRWKII/Q00342:DEL576-597/Q00342:INS599GNSYTFIDPTQLP/Q00342:D601N/Q00342:L602E/Q00342:E609N/Q00342:E612Q/Q00342:V616T/Q00342:S619A/Q00342:R624K/Q00342:M626V/Q00342:N627E/Q00342:Y631F/Q00342:I633L/Q00342:S634G/Q00342:T636E/Q00342:G637D/Q00342:V638A/Q00342:S639V/Q00342:I640L/Q00342:Q641K/Q00342:E649S/Q00342:K650T/Q00342:D652H/Q00342:S653A/Q00342:C654D/Q00342:M665I/Q00342:T667S/Q00342:H671Q/Q00342:D673E/Q00342:L684H/Q00342:S685G/Q00342:Y689L/Q00342:L690V/Q00342:F692T/Q00342:Y703F/Q00342:S706R/Q00342:R708A/Q00342:INS709AMLGPSLSPGQDPEGGVDYKNIHLEKKYVRRDSGFSSQGVDTYVEMRPVSTSSNDSFSEQDLD/Q00342:DEL711-780/Q00342:L783G/Q00342:N784R/Q00342:V785P/Q00342:T787E/Q00342:F788L/Q00342:E789R/Q00342:C793H/Q00342:A795S/Q00342:Y796S/Q00342:K800Q/Q00342:E803A/Q00342:E806A/Q00342:F807S/Q00342:S809N/Q00342:V811I/Q00342:L815V/Q00342:V822L/Q00342:H824N/Q00342:K826H/Q00342:V828A/Q00342:C831G/Q00342:L840M/Q00342:S841N/Q00342:S844N/Q00342:V846I/Q00342:R848K/Q00342:L863I/Q00342:E865D/Q00342:G866C/Q00342:I867V/Q00342:I870V/Q00342:K871Q/Q00342:V889L/Q00342:P896L/Q00342:D898N/Q00342:A899S/Q00342:N900K): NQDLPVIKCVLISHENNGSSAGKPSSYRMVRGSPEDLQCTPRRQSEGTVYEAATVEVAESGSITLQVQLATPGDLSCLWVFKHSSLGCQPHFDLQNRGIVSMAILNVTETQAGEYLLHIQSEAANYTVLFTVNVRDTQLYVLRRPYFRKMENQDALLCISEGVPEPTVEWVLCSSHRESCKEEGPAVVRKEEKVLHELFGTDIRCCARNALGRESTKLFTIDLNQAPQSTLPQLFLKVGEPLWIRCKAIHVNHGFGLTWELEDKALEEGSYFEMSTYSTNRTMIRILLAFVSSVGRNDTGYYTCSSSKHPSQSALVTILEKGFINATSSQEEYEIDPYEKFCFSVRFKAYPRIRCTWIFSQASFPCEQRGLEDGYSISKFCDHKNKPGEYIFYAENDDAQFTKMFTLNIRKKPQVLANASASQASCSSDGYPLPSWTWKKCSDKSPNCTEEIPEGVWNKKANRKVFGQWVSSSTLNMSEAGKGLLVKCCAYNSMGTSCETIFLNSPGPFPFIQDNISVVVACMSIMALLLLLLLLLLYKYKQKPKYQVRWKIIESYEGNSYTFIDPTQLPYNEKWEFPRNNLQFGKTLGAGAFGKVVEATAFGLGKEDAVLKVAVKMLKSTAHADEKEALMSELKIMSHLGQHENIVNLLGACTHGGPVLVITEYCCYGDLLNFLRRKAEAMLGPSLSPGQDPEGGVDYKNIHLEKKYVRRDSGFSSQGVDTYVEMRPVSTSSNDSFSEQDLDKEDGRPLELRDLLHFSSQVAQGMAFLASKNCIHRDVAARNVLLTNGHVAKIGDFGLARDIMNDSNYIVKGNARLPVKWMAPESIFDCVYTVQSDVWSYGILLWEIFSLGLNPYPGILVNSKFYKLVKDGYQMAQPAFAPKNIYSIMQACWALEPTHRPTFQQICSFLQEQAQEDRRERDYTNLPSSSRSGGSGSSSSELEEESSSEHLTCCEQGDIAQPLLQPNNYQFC
Assay: mFlt3/Fms 3T3 biological screening assay (XTT)
Format: cell-based
Description: A biological screening assay to search for novel stimulators of the Flt3 receptor was developed using NIH 3T3 cells transfected with expression vectors containing cDNA of murine and human Flt3 and the related Fms receptor. The mFlt3/Fms 3T3 cell line is a 3T3 cell line transfected with nucleic acid encoding a fusion protein consisting of the murine extracellular domain of the Flt3 receptor fused to the transmembrane and intracellular domains of the human Fms (provided by Dr. Ihor Lemischka, Princeton University, Princeton, N.J.). The Stk 3T3 cell line is a 3T3 cell line transfected with the full-length human Flt3 receptor (provided by Dr. Donald Small, Johns Hopkins University, Baltimore, Md.). The human FMS 3T3 cell line is a 3T3 cell line transfected with the full-length human Fms receptor (provided by Dr. Charles Sherr, Saint Jude Children's Research Hospital, Memphis, Tenn. Parent 3T3 cells were purchased from American Type Culture Collection (“ATCC”; Manassas, Va.). Receptor-transfected cells contained Neo resistance genes and were maintained in medium containing 750 µg/ml of G418 (Life Technologies, Rockville, Md.).
To create factor-dependence for receptor-transfected 3T3 cells, growth conditions were compromised to permit only ligands to rescue cells from death. To do this, 3T3 cell lines were assayed in 96 well plates (Becton Dickinson Labware, Lincoln Park, N.J.) containing 3,000 cells in 100 μL of serum-free medium consisting of 10% AIMV (Life Technologies) and 90% DMEM. In each experiment, samples were serially diluted two-fold across rows starting at a 1:10 dilution. Viable cells were quantitated after 3-5 days by XTT (2,3-bis[Methoxy-4-nitro-5sulfophenyl]-2H-tetrazolium-5 carboxanilide inner salt) (Sigma, St. Louis, Mo.) (Roehm et al., supra). Relative activity (units/ml) and specific activity (units/mg) are defined as the reciprocal dilution at which half-maximal stimulation of cells was detected.

B1: Pv-FRIL: FRIL family mannose-binding lectin from Phaseolus vulgaris (red kidney bean), SEQ ID NO: 6 (protein)
chain: AQSLSFNFTKFDLDQKDLIFQGDATSTNNVLQLTKLDSGGNPVGASVGRVLFSAPFHLWENSMAVSSFETNLTIQISTPHPYYAADGFAFFLAPHDTVIPPNSWGKFLGLYSNVFRNSPTSENQSFGDVNTDSRVVAVEFDTFPNANIDPNYRHIGIDVNSIKSKETARWEWQNGKTATARISYNSASKKSTVTTFYPGMEVVALSHDVDLHAELPEWVRVGLSASTGEEKQKNTIISWSFTSSLKNNEVKEPKEDMYIANVVRSYTWINDVLSYISNKMYDALNNNHKYVRCSTCMLFMKKK
response of mFlt3/Fms 3T3 cells: responded in a dose dependent manner | response of mFlt3/Fms 3T3 cells (presence of rhIL1): respond to FRIL in the presence of rhIL1

From patent publication US6991794B1, “Progenitor cell preservation factors and methods for and products of their use” (ImClone Systems Incorporated, priority 1997, dated 2006)
